This is an account of results in PMC11879086, “Identification and characterization of a human MORC2 DNA binding region that is required for gene silencing” (Nucleic Acids Research, 2024).

The target of data set [1] is T1, MORC2 aspartate mutant (Homo sapiens, UniProt Q9Y6X9 1-1032, K704D;R707D;K713D;K716D;K721D;K722D;R754D;R755D;K756D;R758D;K760D;R761D).
T1 sequence: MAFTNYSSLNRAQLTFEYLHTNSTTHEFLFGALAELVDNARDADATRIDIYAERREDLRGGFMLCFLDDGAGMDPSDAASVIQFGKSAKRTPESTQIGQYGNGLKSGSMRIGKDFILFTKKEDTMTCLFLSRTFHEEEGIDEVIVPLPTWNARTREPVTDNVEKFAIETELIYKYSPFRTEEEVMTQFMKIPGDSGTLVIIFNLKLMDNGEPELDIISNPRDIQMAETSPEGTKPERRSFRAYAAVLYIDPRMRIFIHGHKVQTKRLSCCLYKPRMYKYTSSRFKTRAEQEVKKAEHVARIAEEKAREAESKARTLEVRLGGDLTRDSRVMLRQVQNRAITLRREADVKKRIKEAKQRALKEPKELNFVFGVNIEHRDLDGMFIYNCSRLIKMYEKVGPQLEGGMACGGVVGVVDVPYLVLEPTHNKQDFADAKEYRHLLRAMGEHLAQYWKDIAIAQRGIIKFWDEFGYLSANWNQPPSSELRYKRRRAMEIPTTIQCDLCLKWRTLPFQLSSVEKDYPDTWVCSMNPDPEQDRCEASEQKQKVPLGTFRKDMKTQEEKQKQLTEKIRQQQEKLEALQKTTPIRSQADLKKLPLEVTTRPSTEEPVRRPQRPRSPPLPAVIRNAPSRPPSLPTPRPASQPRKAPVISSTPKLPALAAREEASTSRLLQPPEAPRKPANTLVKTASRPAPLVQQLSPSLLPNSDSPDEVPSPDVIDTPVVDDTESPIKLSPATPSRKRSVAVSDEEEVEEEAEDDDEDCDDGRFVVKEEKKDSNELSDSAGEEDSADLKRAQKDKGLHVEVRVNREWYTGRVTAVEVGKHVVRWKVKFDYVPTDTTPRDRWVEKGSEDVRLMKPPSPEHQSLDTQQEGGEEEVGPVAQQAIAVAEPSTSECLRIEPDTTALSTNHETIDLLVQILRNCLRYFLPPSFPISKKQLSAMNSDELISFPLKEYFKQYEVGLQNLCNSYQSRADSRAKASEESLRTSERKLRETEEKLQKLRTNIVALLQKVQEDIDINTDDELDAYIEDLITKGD
As to the kind of experiment: fluorescence anisotropy; apo; FA/EMSA: 50 mM NaCl, 3 mM MgCl2, 20 mM Na-HEPES pH 7.4, 1 mM TCEP, 10% glycerol, 0.025 mM ZnCl2, 50 ug/ml BSA, room temperature; 1 nM nucleic acid (FA) or 20 nM DNA (EMSA). The following applies: protein: recombinant; tags: tag removed by TEV; chain copies: 2; label: 5'-6-FAM; blunt.

Data set [2] concerns the target T2, MORC2 subset C (Homo sapiens, UniProt Q9Y6X9 1-1032, R754D;R755D;K756D;R758D;K760D;R761D).
T2 sequence: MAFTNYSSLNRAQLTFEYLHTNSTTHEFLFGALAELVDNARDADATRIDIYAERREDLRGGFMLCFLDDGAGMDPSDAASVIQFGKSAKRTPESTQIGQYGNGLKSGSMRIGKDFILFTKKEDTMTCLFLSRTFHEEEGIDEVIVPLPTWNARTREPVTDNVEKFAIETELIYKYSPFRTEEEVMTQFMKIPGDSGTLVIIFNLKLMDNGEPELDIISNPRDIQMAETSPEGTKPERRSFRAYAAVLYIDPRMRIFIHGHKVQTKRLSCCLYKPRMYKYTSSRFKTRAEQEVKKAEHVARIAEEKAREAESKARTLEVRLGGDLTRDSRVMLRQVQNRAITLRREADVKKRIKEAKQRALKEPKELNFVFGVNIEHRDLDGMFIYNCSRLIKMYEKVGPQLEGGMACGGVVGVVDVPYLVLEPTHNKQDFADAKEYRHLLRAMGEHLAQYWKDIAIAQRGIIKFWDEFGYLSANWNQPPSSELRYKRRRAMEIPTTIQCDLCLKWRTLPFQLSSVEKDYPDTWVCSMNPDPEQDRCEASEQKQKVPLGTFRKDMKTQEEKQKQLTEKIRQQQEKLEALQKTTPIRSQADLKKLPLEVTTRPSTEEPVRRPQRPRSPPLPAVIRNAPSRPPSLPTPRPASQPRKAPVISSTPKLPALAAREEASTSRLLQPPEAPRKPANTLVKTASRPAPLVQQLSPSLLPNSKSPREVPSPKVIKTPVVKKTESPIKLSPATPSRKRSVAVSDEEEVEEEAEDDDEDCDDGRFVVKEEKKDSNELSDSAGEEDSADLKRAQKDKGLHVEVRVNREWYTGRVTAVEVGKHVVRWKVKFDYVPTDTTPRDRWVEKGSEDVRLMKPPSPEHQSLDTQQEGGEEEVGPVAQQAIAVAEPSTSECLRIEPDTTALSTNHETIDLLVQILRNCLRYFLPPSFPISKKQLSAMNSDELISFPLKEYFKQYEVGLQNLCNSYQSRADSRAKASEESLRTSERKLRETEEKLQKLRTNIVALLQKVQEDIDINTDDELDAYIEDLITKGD
The data set is described as above. The following applies: protein: recombinant; tags: tag removed by TEV; chain copies: 2; label: 5'-6-FAM; blunt.

B1: Random 35mer dsDNA (dsDNA)
DNA 1: ATAGGGTCCATCAGAATTCGGATGAACTCGGTGTG
DNA 2: CACACCGAGTTCATCCGAATTCTGATGGACCCTAT
For B1, the equilibrium dissociation constant (Kd) (as a rule, the free concentration of one partner at which half of the binding sites on the other are occupied at equilibrium, for simple one-to-one binding) in data set [1] turned out to be 380 ± 120 nM; in data set [2], 60 ± 20 nM.
